# Assay results from the nanobody polyreactivity screen of Harvey et al. (2022).
# Test: yeast display, Sf9 membrane polyspecificity reagent, FACS + sequencing; frameworks hold sequencing errors
# Procedure, shortened: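 A nanobody's polyreactivity label depends on the gate it was sorted from. Yeast display cells were stained with 10% biotinylated, detergent-solubilized Sf9 membrane reagent for 1 hour at 4 °C, enriched on streptavidin microbeads and sorted by FACS. The low and high (top ~1%) gates were set on anti-HA fluorescence for expression and streptavidin fluorescence for reagent binding.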
sequence,measurement,value
QVQLVESGGRLVQSGGSLRLICAASGQIFQWYAMGWYRQAPGKETELVAAISSGDSTYYADSVTGRFTISRDNAKNTVYLDMNSLKPEDTAVDYCNARAIGWRIYDYWGQGTEVTVSS,polyreactivity (PSR sort gate),high polyreactivity
QVQLVESGGRLVQSGGSLRLSCAASGRTIVENAMGLYRQAPGKEREFVAAISYKGGSTYYADSVKGRFTISRDNAKNTVYFQMNSLNPEDTAVYYCAADPNYGYDYWGQGTQVTVST,polyreactivity (PSR sort gate),low polyreactivity
QVQLVESGGSLVQAGGSLRLSCAASGSIFFYYAMGWYRQAPGKERELVAAISWSGGSTYYADSVKGRFTISRDNAKNTVYLQMNSLKPEDTAVYYCAADRPYAGRYWKGYHSALYDYWGQGTQVTVSS,polyreactivity (PSR sort gate),low polyreactivity
QVQLVESGGSLVQAGGSLRLSCAASGSTFDYYAMGWYRQAPGKARELHAAIDWSGDSTYYADSVKGRFTISRDNAKNTVYLQMNSLKREDSAVYYCPADLDSRGTYGRYEYWGQGTQVTVSS,polyreactivity (PSR sort gate),low polyreactivity
QVQLVESGGSLVQAGGSLRVSCAASRSIFEHYAMGWYRQAHGKERELVATISSASRTHYADSVKGRFTISRDNAKNTVYLQRNSLKREDTAVYYCAARLYYVWYAPYYYWGQGTQVSVSS,polyreactivity (PSR sort gate),high polyreactivity
QVQLVESGGSLVQEGGSLRLSCAASGRTYNVMGWDRQAPGKERELVAAITWGGGSTHYADSVKGRFTISRDNAKNTVYVQMNSLKPEDTAVYYCAADLLYKSTRVDYWGQGTQVTVSS,polyreactivity (PSR sort gate),low polyreactivity
QVQLVESGGVFDQARGSLRLSCAASGSIFAIYAMGWYRQAPGKERELVAAISRSGGRTYYADSVKGRFTISRDNAKNTVYLQMNSLKPEDTAVYYCAAQGVSSGFRYRGGYWGQGTQVTVSS,polyreactivity (PSR sort gate),high polyreactivity
QVQLVESGGVLFQAGGSLRLSCAAAGFTFKYNAMGWYRQAPGKERELVASITSGATNYADSVKGRFTIARDNAKNTVSLQLTTLKPEETAVYDCAVVDVHYTRAKVGYAYGAYDYWGQCTQVTVSS,polyreactivity (PSR sort gate),low polyreactivity
QVQLVESGGVLLQAGGSLRLSCAASGSIFYPYAMGWYRQAPGKERELFAAITYIDADTYYADSVKGRFTISRDNAKNTVYLQMNSLKPEDTAVYYCAAEIPVYQGTGEDDYWGQGTQVTVSS,polyreactivity (PSR sort gate),low polyreactivity
QVQLVESGGVLVKAGGSLRLSCAASGRIFGYYAMGWYIQAPGKERELFAAITYSSGRTYYADSVKGRFTISRDNAKNTFYLQMNSLKPEDTAVYYCAARYHYYLSPATYYYWGQGTQVTVSS,polyreactivity (PSR sort gate),high polyreactivity
QVQLVESGGVLVQAGCSIRLSCSASGLTFIQYAMGWYRQAPGKERELVAAINSGASTRYADSVKGRFTISRDNAKNTVYLQMNSLKPEDTAVYYCNARLRRYTNRYYKYYYWGQGTQVNVSS,polyreactivity (PSR sort gate),high polyreactivity
QVQLVESGGVLVQAGGRLRISCAASGSTFVRNAMGWYRQAPGKEMELVAAISFSGGSTYYADSVKGRFTISRDTAKNTVYLQMNSLKPEDTAVYYCAKKTRYRSRGMNYWGQATQVTVSS,polyreactivity (PSR sort gate),high polyreactivity
QVQLVESGGVLVQAGGRLRLSCAASGLTFNENVMGWYRQAPGKERELVAAISTGASTYYADSVKGRFTISRDNAKNTVYLQMNSLKPEDTAVYYCAKRVNRWYGYWGQGTQVTVSS,polyreactivity (PSR sort gate),high polyreactivity
QVQLVESGGVLVQAGGSLPLSCAASGRILARNAMGWYRQAPGNERELVAAITSSTDSTYYADSVKGRFTISRDNAKNTVYLQMNSLKPEDTAVYYCATVVRLYRGRYSYDYWGQGTQVTVSS,polyreactivity (PSR sort gate),high polyreactivity
QVQLVESGGVLVQAGGSLRLICAASVRNFSTNSMGWYRQAPGKERELVASISFRGGRTYYADSVKGRFTISRDNAKNTVYLQMNSRKPEDNAVYYCVSGTKRTGYGYWGQGTQVTVSS,polyreactivity (PSR sort gate),high polyreactivity
QVQLVESGGVLVQAGGSLRLRCAASVRNYNSYMGWYRPAPGKERELVAAISWSSGTSTYYADSVKGRFTISRDNAKNTVYLQMNSLKPEDTEVYYCNAVDYFGPYPEEYDYWGQGTQVTVSS,polyreactivity (PSR sort gate),low polyreactivity
QVQLVESGGVLVQAGGSLRLSCAAMGWYRQAPGKERELVATITWSGGSTYYADSVKGRFTISRDNAKNTVYLQMNSLKPEDTAVYYCNSRATLLSPANTIRGYDYWGQGTQVTVSS,polyreactivity (PSR sort gate),low polyreactivity
QVQLVESGGVLVQAGGSLRLSCAASGRIFDIYAMGWYRQAPGKERELVAGITWRAGSTYYADSVKGRFTISRDNAKNTVYLQMNSLKPEDSAVYFCARDYSRHKGDYWGQGTQVTVSS,polyreactivity (PSR sort gate),low polyreactivity
QVQLVESGGVLVQAGGSLRLSCAASGRIFLEYAMGWYRQAPGKERELVAAISRGGGRTYYADSVKGRFTISRDNAKNTVYLLMNSLKPEDTAVYYCAAGLAKGYWASFAYRYDYWGQGTQVTVSS,polyreactivity (PSR sort gate),high polyreactivity
QVQLVESGGVLVQAGGSLRLSCAASGRIFWGYAMGWYRQAPGKERELVARLTSGGDTYYADSVKGRFTISRDNAKNTVDLQMNSLKPEDTAVYYCAKSTAVKPYAYRESGFIYDYRGQGTQVTVSS,polyreactivity (PSR sort gate),low polyreactivity
QVQLVESGGVLVQAGGSLRLSCAASGRTFDSYAMGWYRQAPGKERELVAAISSRGTRTYYADSVKWRFTISRDNAKNTVYLQMNSLKPEDTAVYYCNAGGAYEYDYWGQGTQVTVSS,polyreactivity (PSR sort gate),high polyreactivity
QVQLVESGGVLVQAGGSLRLSCAASGRTFYGYSMGWYRQAAGKEREFVSDITYSGGRTYYADSVKGRFTISRDNAKNTVYLQMYSLKPEDTAVYYCNAYYYYVNQGRYEYGYWGQGTQVTVSS,polyreactivity (PSR sort gate),high polyreactivity
QVQLVESGGVLVQAGGSLRLSCAASGRTFYYYAMGWYRQAPGKEREFVAVISGSGANTFYADSVKGRFTISRDNAKNTVYLQMNSLKPEDTAVYYCAARSWEGYGYWGQGTQVTVSS,polyreactivity (PSR sort gate),high polyreactivity
QVQLVESGGVLVQAGGSLRLSCAASGRTLFHYAMGWDRQAPGKERELVAAIRNSDGSTYYADSVKGRFTISRDNAKNTVYLQMNSLKPEDTAVYYCAAKYKYRTNNYWGQGTQVTVSS,polyreactivity (PSR sort gate),high polyreactivity
QVQLVESGGVLVQAGGSLRLSCAASGSIFGYNVMGRYRQAPGKERELVAAITYSGGSTYYADSVKGRFTISRDNAKNTVYLQMNSLKPEDTAVYYCAKVTGRRFPAYGYDHWGQGTQLTVSS,polyreactivity (PSR sort gate),high polyreactivity
QVQLVESGGVLVQAGGSLRLSCAASGSIFYYNAMGWYRQAPGKERELVATITGGNGTYYADSVKGRFTISRDNAKNTVYLQMNSLKPEVTAVYYCARDTDPQSSRSSDYDYWGQGTQVTVSS,polyreactivity (PSR sort gate),low polyreactivity
QVQLVESGGVLVQAGGSLRLSCAASGSILHDYAMGWYRQAPGKERELVASINWSGGRTYYADSVKGRFTISRDNAKNTVYLQRNRLTPEDTAVYYCSADPSWLHVSHAPTFGLDYWGQGSQVTVSS,polyreactivity (PSR sort gate),high polyreactivity
QVQLVESGGVLVQAGGSLRLSCAASGSIYRYYAMGWYRQAPGKERELVAAISWRGGSTYYADSVKGRFTISRDNAKNPVYLQMNSLKPEDTAVYYCAAELWVGTYGEYDYWGQGTQVTVSS,polyreactivity (PSR sort gate),low polyreactivity
QVQLVESGGVLVQAGGSLRLSCAASGSTFLWYAMGWYRQAPGKEREMVAAISRSGGNTYYADSVKGRFTISRDNAKTSVYLEMNSLNPEDTAVYDCAARKLYGSPEHGYGGQGTQVTVSS,polyreactivity (PSR sort gate),high polyreactivity
QVQLVESGGVLVQAGGSLRLSCAASGSTFNSYVMGWYRQAPGKEREFVAAISWSGVRTYYADSVKGRFTISRDNAKNTVYLQMNSLKPEDTAVYYCAVRSGRRNYVRPAFGYWGQGTQVTVSS,polyreactivity (PSR sort gate),high polyreactivity
QVQLVESGGVLVQAGGSLRLSCAASGSTFVYNAMGWYRQAPGKESEFVAAISGSGGSTYYADSVKGRFTISRDIAKNTVYLQMNSLKPDDTAVYYCATAGRYGRYRTYPYRSKYDYWGQGTQVTVSS,polyreactivity (PSR sort gate),high polyreactivity
QVQLVESGGVLVQAGGSLRLSCAATGYIFHLYGMGWYRQAPGKERELVARITYRRGSTYYADSVKGRFTISRDNAKNTVYLQMNSLKPEDTAVYYCAKRRGYGYNYWGQGTQVTVSS,polyreactivity (PSR sort gate),high polyreactivity
QVQLVESGGVLVQAGGSLRLSCADSGRTFYTNAMGWYRQAPGKERELVAAITGSDGNTYYADSVKGRFTISRENAKNTVYLQMISLKAEDTAVYYGFDYWVQGTQVTVSS,polyreactivity (PSR sort gate),low polyreactivity
QVQLVESGGVLVQAGGSLRLSCADSGSIFILYAMGWYRHAPGKESEFVAAITYRGGSTKYADSVKGRFTISRDNAKNTVYLQMNRLKPEDTAVYYCAAGGYWRSPCGSVSRYGYWGQGTQVTVSS,polyreactivity (PSR sort gate),high polyreactivity
QVQLVESGGVLVQAGGSLRLSSAASGRTFFRYTMGWYRQAPGKERELVAAISRSDGTTYYADSVKGRFTISRDSAKNTVYLEMNSLKPEDTAVYYCAKSLPSGYYYWGQGTQVTVSS,polyreactivity (PSR sort gate),low polyreactivity
QVQLVESGGVLVQAGGSLRLTCAASGRTFGHYAMGWYRQAPGKERELVAANTSSAGRTRYADSVKGRFTISRDYAKNTVYLQMNSLKPEDTAVYYCAVAEGYSPAYLRDYWGQGTQVTVSS,polyreactivity (PSR sort gate),high polyreactivity
QVQLVESGGVLVQAGGSLRLTCAASGSILYLNAMGWYRQAPGKERELVAAITWSGGSTSYADSVKGRFTISRDNAKYTVSLQMNSLKPEDTAVYYCASGRRGYGGVYYAGGYWGQGTQVTVSS,polyreactivity (PSR sort gate),low polyreactivity
QVQLVESGGVLVQAGGTLRFSCAPSGLTFVYYTMRWYRQAPGQEREFVAGIDWSGGSTYYADSVKGRFTISRDNAKNTVYLHMNSLKPEDTAVYYCAAAVYYQYCVYRHDYWGKGTQVTVSS,polyreactivity (PSR sort gate),low polyreactivity
QVQLVESGGVLVQDGGSLRLSCAASGRIFGHYAMGWYRQAPGKERELVAAISWSGGSTYYADSVKARFTISRDNAKNTVYLQMKSLKPEDTAVYDCNTGRVRYQGVRYDYWGQGTQVTVSS,polyreactivity (PSR sort gate),high polyreactivity
QVQLVESGGVLVQEGGSLRLICAASGSIFGYYVMGWYRQAPGKERELVAAISRSGGSTYYADSVKGLFTISRDNAKTTVYLQMNSLKQEDTAVYYCAASFAVRYPRLDYWGQGTQVTVSS,polyreactivity (PSR sort gate),high polyreactivity
QVQLVESGGVLVQEGGSLRLSCDASGSIFECYAMGWYRQAPGKARELVAYITYNGGSTYYADSVKGRFTISRHNAKKTVYLQMNSLKPEDSAVYYCAAVYFVQVPDYYYASEYGYWGQGTQVTVSS,polyreactivity (PSR sort gate),low polyreactivity
QVQLVESGLGLVQAAGSLRLSCAASGSILYSYAMGWYRQAPGKERELFAAITGAGASTNYADSVKGRFTISRDNGKNTVYLQMNSLKPEDTAVYYCNAEYNPYHYYKAWVYTYDYGYWGQGTQVTVSS,polyreactivity (PSR sort gate),low polyreactivity
QVQLVESGLGLVQAGGSLRISCAASGLTIYYYAMGWYRQAPGKERELVAAITWRGGSTYYADSVKGRFTISRDNAKNTVYLQMNSLKPEDTAVYYCNKAYKYIRQQPYRTKRYDYWGQGTQGTVSS,polyreactivity (PSR sort gate),low polyreactivity
